Results: patent US20260042849A1, “PROTEASE-CLEAVABLE MOIETIES AND METHODS OF USE THEREOF” (CytomX Therapeutics, Inc., priority 2022, published 2026)

Tests used:
[1] = target: T1, MMP14 (Homo sapiens, UniProt P50281); test: In vitro cleavability of activatable antibodies, capillary electrophoresis; format: biochemical
[2] = target: MMP9 (Homo sapiens, UniProt P14780); test: Internally quenched peptide probe cleavage assay (Example 8); format: biochemical; details: 20 μM peptide probe, 20 nM protease, 37° C.
Source text: (§1) The study provided herein evaluated the cleavability kinetics (i.e., pM/s and kcat/KM (M^−1 s^−1) of CMs with matriptase (MT-SP1) and matrix metalloprotease (MMP) 2 (MMP2), MMP9, and MMP14. The CMs listed in Table 10 below were presented in an internally quenched peptide probe format, rather than included in an activatable antibody format. In the internally quenched probes, the CM sequence was positioned between a 7-methoxycoumarin-4-acetyl (MCA) fluorophore and a 2,4-dinitrophenyl (DNP) quencher such that cleavage of the CM sequence produced a fluorescence signal. The probes were of the following designs: (MCA)-Gly-Ser-X1-X2-Pro-X3-Gly-Leu-X4-X5-Gly-Ser-Lys (DNP)-D-Arg (SEQ ID NO: 178) where X1 is Arg or is absent, X2 is Ser or is absent, X3 is Met or Trp, X4 is Lys, Arg, or is absent, and X5 is Ser or is absent; (MCA)-Ser-X1-Pro-X2-Gly-Leu-X3-X4-Gly-Ser-Lys (DNP)-D-Arg (SEQ ID NO: 179) where X1 is Ala, X2 is Met, X3 is Lys, and X4 is His; and (MCA)-Gly-Ser-Pro-X1-Gly-Leu-X2-Gly-Gly-Ser-Lys (DNP)-D-Arg (SEQ ID NO: 180) where X1 is Met and X2 is Lys, as indicated in Table 10. The cleavage rates (pM/s) were measured using 20 μM internally quenched peptide probe and 20 nM MT-SP1, MMP2, MMP9, or MMP14. Cleavability kinetics (i.e., pM/s and kcat/KM (M^−1 s^−1)) were measured at 37° C. in 96- or 384-well plate format in the following buffers: 50 mM TRIS-HCl (pH 7.4), 150 mM NaCl, 0.05% Tween 20 for MT-SP1, 50 mM Tris-HCl (pH 7.5), 10 mM CaCl2, 150 mM NaCl, 0.05% (w/v) Brij-35 for MMP2 and MMP9, and 50 mM HEPES (pH 6.8), 10 mM CaCl2), 0.5 mM MgCl2, 0.05% (w/v) Brij-35 for MMP14. Cleavability kinetics were determined on an Infinite 200 PRO (Tecan) multimode plate reader using a fluorescence excitation wavelength of 320 nm and an emission wavelength of 405 nm.

[3] = target: T1, MMP14; test: as above; format: biochemical; details: 20 μM peptide probe, 20 nM protease, 37° C.
Source text: as §1

[4] = target: T2, MT-SP1 (Homo sapiens, UniProt Q9Y5Y6); test: as above; format: biochemical; details: 20 μM peptide probe, 20 nM protease, 37° C.
T2 sequence (Q9Y5Y6 615-855 limits assumed): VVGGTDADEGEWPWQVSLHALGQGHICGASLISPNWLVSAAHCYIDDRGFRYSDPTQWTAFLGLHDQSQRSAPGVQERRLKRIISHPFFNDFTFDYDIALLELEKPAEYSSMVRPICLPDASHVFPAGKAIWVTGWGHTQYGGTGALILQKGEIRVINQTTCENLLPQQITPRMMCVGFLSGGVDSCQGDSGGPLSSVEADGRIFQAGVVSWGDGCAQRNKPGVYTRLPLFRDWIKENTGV
Source text: as §1

[5] = target: T3, MMP2 (Homo sapiens, UniProt P08253); test: as above; format: biochemical; details: 20 μM peptide probe, 20 nM protease, 37° C.
T3 sequence (P08253 110-660): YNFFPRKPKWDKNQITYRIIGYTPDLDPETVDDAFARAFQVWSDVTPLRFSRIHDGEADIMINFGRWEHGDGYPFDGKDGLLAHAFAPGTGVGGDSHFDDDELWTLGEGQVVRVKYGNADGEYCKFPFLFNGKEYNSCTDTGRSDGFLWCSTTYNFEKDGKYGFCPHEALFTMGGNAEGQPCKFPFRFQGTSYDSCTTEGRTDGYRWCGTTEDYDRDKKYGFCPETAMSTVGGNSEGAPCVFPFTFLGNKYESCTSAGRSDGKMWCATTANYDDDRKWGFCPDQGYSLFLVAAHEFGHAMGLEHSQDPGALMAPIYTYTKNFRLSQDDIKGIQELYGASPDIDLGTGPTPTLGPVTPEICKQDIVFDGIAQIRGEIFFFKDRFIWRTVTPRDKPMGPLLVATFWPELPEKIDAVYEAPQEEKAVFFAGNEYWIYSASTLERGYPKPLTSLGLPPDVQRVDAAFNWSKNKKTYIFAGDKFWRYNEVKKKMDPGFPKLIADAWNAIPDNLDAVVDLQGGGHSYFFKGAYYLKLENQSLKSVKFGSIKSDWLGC
Source text: as §1

[6] = target: recombinant EGFR (Homo sapiens, UniProt P00533); test: Solid-phase binding assay (ELISA) of anti-EGFR activatable antibodies; details: compared to activatable antibodies with control CM 2001
[7] = mouse
[8] = target: T3, MMP2; test: In vitro cleavability of activatable antibodies, capillary electrophoresis; format: biochemical; set-up: purchased R&D Systems 902-MP
[9] = 500 nM activatable antibody, 10 nM protease, 4 hours at 37° C.
[10] = Tables 6A-6C, activatable antibody format

Chain of MMP9 (P14780 107-707 limits assumed): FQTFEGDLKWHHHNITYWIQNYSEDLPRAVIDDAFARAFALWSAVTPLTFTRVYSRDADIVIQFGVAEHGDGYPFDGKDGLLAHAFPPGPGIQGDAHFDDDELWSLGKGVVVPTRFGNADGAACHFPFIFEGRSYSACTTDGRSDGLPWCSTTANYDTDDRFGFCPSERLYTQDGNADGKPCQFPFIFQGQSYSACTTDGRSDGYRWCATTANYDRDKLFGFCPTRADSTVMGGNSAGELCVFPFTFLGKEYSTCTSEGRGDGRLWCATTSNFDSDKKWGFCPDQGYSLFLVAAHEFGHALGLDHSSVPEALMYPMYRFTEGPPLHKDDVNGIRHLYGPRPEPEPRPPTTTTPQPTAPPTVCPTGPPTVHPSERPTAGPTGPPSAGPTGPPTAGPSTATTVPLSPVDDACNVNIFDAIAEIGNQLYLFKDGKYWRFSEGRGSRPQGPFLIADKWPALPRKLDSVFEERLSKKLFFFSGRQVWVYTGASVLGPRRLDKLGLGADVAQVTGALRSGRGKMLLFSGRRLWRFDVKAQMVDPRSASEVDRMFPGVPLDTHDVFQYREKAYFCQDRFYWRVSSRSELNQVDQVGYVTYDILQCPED

APMGLKH [CM 7046, also tested as internally quenched peptide probe]
Cleavability (%) 4h MMP14 [1, 9]: 95.3% | percent activation for MMP14 [1, 10]: greater than 90% | Probe Cleavage (pM/s) MMP9 [2]: 115000 pM/s | Probe Cleavage (pM/s) MMP14 [3]: 114000 pM/s | Probe Cleavage (pM/s) MT-SP1 [4]: 3330 pM/s | Probe Cleavage (pM/s) MMP2 [5]: 81700 pM/s | effect of CM on apparent masking efficiency [6]: increasing the apparent masking efficiency | in vivo stability versus control CMs [7]: higher in vivo stability | Cleavability (%) 4h MMP2 [8, 9]: 95.7% | percent activation for MMP2 [8, 10]: greater than 90%
